Test results: patent US20210107969A1 (Johns Hopkins, published 2021)
Values belong to the binder of their own block, whether it stands above or below them.

Assays:
human TGF-β1 = target: T1, human TGF-β1 (human, UniProt P01137 279-390, biotinylated in the FIG. 8C ELISA; unlabelled rhTGF-β1 in FIG. 9B/9C); test: ELISA, protein coated, biotinylated huTGFb1 detected by avidin-HRP
T1 construct: also called biotinylated huTGFb1; rhTGF-β1

biotinylated huPD-L1 = target: T2, biotinylated huPD-L1 (human, UniProt Q9NZQ7 19-238, limits assumed, biotinylated (site not stated)); test: ELISA, antibody coated, biotinylated huPD-L1 detected by avidin-HRP
T2 construct: it is treated here as the same reagent; also called biotinylated PD-L1
T2 sequence (Q9NZQ7 19-238 limits assumed): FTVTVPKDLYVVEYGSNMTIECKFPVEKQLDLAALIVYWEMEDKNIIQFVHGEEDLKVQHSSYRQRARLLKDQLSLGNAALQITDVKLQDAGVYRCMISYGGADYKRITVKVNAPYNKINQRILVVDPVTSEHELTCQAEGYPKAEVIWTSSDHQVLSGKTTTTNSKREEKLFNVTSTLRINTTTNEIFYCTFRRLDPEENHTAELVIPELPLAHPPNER

T1 sequence (P01137 279-390 limits assumed): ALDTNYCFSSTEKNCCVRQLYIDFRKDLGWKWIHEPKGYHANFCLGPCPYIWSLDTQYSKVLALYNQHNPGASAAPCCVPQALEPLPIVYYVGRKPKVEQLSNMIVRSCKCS

- binding result (human TGF-β1): no binding
B1: anti-VEGF (bevacizumab) (antibody, human IgG1, kappa, V domains shown)
VH: EVQLVESGGGLVQPGGSLRLSCAASGYTFTNYGMNWVRQAPGKGLEWVGWINTYTGEPTYAADFKRRFTFSLDTSKSTAYLQMNSLRAEDTAVYYCAKYPHYYGSSHWYFDVWGQGTLVTVSS
VL: DIQMTQSPSSLSASVGDRVTITCSASQDISNYLNWYQQKPGKAPKVLIYFTSSLHSGVPSRFSGSGSGTDFTLTISSLQPEDFATYYCQQYSTVPWTFGQGTKVEIKR

- binding result (biotinylated huPD-L1): no binding
B2: anti-PD1 (nivolumab) (antibody, human IgG4 S228P, kappa, V domains shown)
VH: QVQLVESGGGVVQPGRSLRLDCKASGITFSNSGMHWVRQAPGKGLEWVAVIWYDGSKRYYADSVKGRFTISRDNSKNTLFLQMNSLRAEDTAVYYCATNDDYWGQGTLVTVSS
VL: EIVLTQSPATLSLSPGERATLSCRASQSVSSYLAWYQQKPGQAPRLLIYDASNRATGIPARFSGSGSGTDFTLTISSLEPEDFAVYYCQQSSNWPRTFGQGTKVEIKR
notes: Negative control in the PD-L1 ELISA
